The RNAGym collection of RNA variant scans (doi:10.7554/elife.80360)

B1: Hairpin Ribozyme (parent)
chain: GUCCUCUUUCACGUGCGCGUGAAAGAGAGAAGUGAACCAGAGAAACACACGUUGUGGUAUAUUACCUGGUA

Variants of: B1
Assay: self-cleavage, relative activity (ratio to wild type); higher = more cleavage; co-transcriptional

| Variant | self-cleavage |
| --- | --- |
| GUCCUCUUACACGUGCGCGUGAAAGAGAGAAGUGAACAAGAGAAACACACGUUGUGGUAUAUUACCUGGUA [U9A C38A] | 0.146 |
| GUCCUCCUUCACGUGCGCGUGAAAGAGACAAGUGAACCAGAGAAACACACGUUGUGGUAUAUUACCUGGUA [U7C G29C] | 0.131 |
| GUCCUCUUUCACGUGCGCGUGAAAGAGAGAAGUGAUCCAAAGAAACACACGUUGUGGUAUAUUACCUGGUA [A36U G40A] | 0.296 |
| GUCCUCUUUCACGUGCGCGUGAAAGUGAUAAGUGAACCAGAGAAACACACGUUGUGGUAUAUUACCUGGUA [A26U G29U] | 0.151 |
| GUCCUCUUUCACGUGCACGUGAAAGAGAGAAGUGAACCAGAGAAACACACGUUGUGGUAUAUUACCAGGUA [G17A U67A] | 0.255 |
| GUCCUCUUUCCCGUGCGCGUGAAAGAGAGAAGUGAACCAGAGAAAAACACGUUGUGGUAUAUUACCUGGUA [A11C C46A] | 0.142 |
| GUCCUCUUUGACGUGCGCGUGAAAGAGAGAAGUGAACCAGAGAAACACCCGUUGUGGUAUAUUACCUGGUA [C10G A49C] | 0.198 |
| GUCCUCUUUCACGUGCGCGUGAAAGAGAGAAGUGAACCAGAGAAACACACCUUGUGGUAUAUUACCUGGUC [G51C A71C] | 1.3 |
| GUCCUCUUUCACGUGCGCGUGAAAGAUAGAAGUGAACCAGAGAAACACACGUUUUGGUAUAUUACCUGGUA [G27U G54U] | 0.208 |
| GUCCUCUUUCACGUGCGCGCGAAAGAGAGAAGUGAACCAGAGAAACACACGUUGUGGUAUAUUACAUGGUA [U20C C66A] | 0.309 |
| GUCCUCUUUCACGUGCACGUGAAAGAGAGAAGUGAACCAGGGAAACACACGUUGUGGUAUAUUACCUGGUA [G17A A41G] | 0.833 |
| GUCCUCUUUCACGUGCGCGUGAAAGAGAGGAGUGAACCACAGAAACACACGUUGUGGUAUAUUACCUGGUA [A30G G40C] | 0.131 |
| GUCCUCUUUCAAGUGCGCGUGAAAGAGAGAAGUGAGCCAGAGAAACACACGUUGUGGUAUAUUACCUGGUA [C12A A36G] | 0.956 |
| GUCCCCUUUCACGUGCGCGUGAAAGAGAGAGGUGAACCAGAGAAACACACGUUGUGGUAUAUUACCUGGUA [U5C A31G] | 0.391 |
| GUCCUCUUUCACGUGCGCGUGAAAGAGAGGAGUGAACCAGCGAAACACACGUUGUGGUAUAUUACCUGGUA [A30G A41C] | 0.201 |
| GUCCUCUUUCACGUGCGCGUGAGAGAGAGAAGUGAACCAGAGAAACACACGUUGUGGUAUAUUCCCUGGUA [A23G A64C] | 0.2 |
| GUCCUGUUUCACGUGCGCGUGAAAGAGAGAAGUGAACCAGAGAAACACACCUUGUGGUAUAUUACCUGGUA [C6G G51C] | 0.458 |
| GUCCUCUUUCACGUGCGCGUGAAAGAGAGAAGUGAACCAGAGAAUCACACGUUGUGGUAUAUUACCUAGUA [A45U G68A] | 0.169 |
| GUCCUCUUUCACGUGCGCGUGAAAGAGAGAAGUGAACCAGAGUAACUCACGUUGUGGUAUAUUACCUGGUA [A43U A47U] | 0.145 |

| Variant | self-cleavage |
| --- | --- |
| GUACUCUUUCACGUGCGCGUGGAAGAGAGAAGUGAACCAGAGAAACACACGUUGUGGUAUAUUACCUGGUA [C3A A22G] | 0.706 |
| GUCCUCUUUCACGUGCGCGUGAAUGAGAGAAGUGAUCCAGAGAAACACACGUUGUGGUAUAUUACCUGGUA [A24U A36U] | 0.41 |
| GUCCUCUUUCCCGUGCGCGUGAAAGAGAGAAGUGAACCAGAGAAACACACGUUGUGGUAUAUUAACUGGUA [A11C C65A] | 0.896 |
| GUCCUCUUUCACGUGCGCGUGAAAGAGAGAAGUGAACCAAAGAAACACACGUUGUGGUAUAGUACCUGGUA [G40A U62G] | 0.133 |
| GUCCUCUGUCACGUGCGCGUGAAAGAGAGAAGUGAACCAGAGAAACUCACGUUGUGGUAUAUUACCUGGUA [U8G A47U] | 0.168 |
| GUCCUCUUUCACGCGCGCGUGAAAUAGAGAAGUGAACCAGAGAAACACACGUUGUGGUAUAUUACCUGGUA [U14C G25U] | 0.762 |
| GUCCUCUAUAACGUGCGCGUGAAAGAGAGAAGUGAACCAGAGAAACACACGUUGUGGUAUAUUACCUGGUA [U8A C10A] | 0.458 |
| GUCCUCUUUCACGUGCGCGUGAAAGAGAGAAGUGAACCAGAGAAACACACGUUGUGAUAUAUUAUCUGGUA [G57A C65U] | 0.231 |
| GUCCUCUUUCACGUGCGCGUGAAAGACAGAAGUGAACCAGAGAAACACACGUUUUGGUAUAUUACCUGGUA [G27C G54U] | 0.192 |
| GUCCUCUUUCACGUGCGCGUGAAGGAGAGAAGUGAACCGGAGAAACACACGUUGUGGUAUAUUACCUGGUA [A24G A39G] | 0.308 |
| GUCCUCUUUCACGUGCGCGUGAAAGAGAGAAGUGAACCAGUGAAACACACGUUGUGGGAUAUUACCUGGUA [A41U U58G] | 1.02 |
| GUUCUCUUUCACGUGCGCGUGAAAGAGAGAAGUGAACCAGAGAAACACACGUUGUGGUAUAUUACCUGGCA [C3U U70C] | 0.351 |
| GUCCUCUUUCACGUGCGCGUGAAAGAGAGAUGUGAACCAGAGAAACACACGUUGUGGUACAUUACCUGGUA [A31U U60C] | 0.103 |
| GUCAUCUUUCACGUGCGCGUGAAAGAGAGAAGUGAACCAGAGAAACACACGUUGUGAUAUAUUACCUGGUA [C4A G57A] | 0.117 |
| GUCCUCUUUCACGUGCGCGUGAAAGAGAGAAAGGAACCAGAGAAACACACGUUGUGGUAUAUUACCUGGUA [G32A U33G] | 0.137 |
| GUCCUAUUUCACGUGCGCGUGAAAGAGAGAAGUGAACCAGAGAAACACACGUUGUGGUAUAUUACCUGGUG [C6A A71G] | 0.606 |
| GUCCUAUUUCACGUGCGCGUGAAAGAGAGAAGUGAACCAGAGACACACACGUUGUGGUAUAUUACCUGGUA [C6A A44C] | 0.0999 |
| GUCCUCUUACACGUGCGCGUGAAAGAGAGAAGUGACCCAGAGAAACACACGUUGUGGUAUAUUACCUGGUA [U9A A36C] | 0.456 |
| GUCCUCUUUCACGUGCGCGUGAAAGAGAGAUGUGAACCAGGGAAACACACGUUGUGGUAUAUUACCUGGUA [A31U A41G] | 0.0486 |
